Assay [1] has as its target DD(E) soluble fibrin-derived polypeptide (UniProt P02671). The experiment in a line: Kd against DD(E) target, 'as described above'.
Assay [2] has as its target T1, dried fibrin (UniProt P02671 36-629; P02675 45-491; P02679 27-437, limits assumed).
T1 construct: Polymerised fibrin made in 96-well plates from fibrinogen and thrombin, dried at 37 C and rehydrated; also called (rehydrated) dried fibrin; fibrin target
T1 sequence (looked up) 1: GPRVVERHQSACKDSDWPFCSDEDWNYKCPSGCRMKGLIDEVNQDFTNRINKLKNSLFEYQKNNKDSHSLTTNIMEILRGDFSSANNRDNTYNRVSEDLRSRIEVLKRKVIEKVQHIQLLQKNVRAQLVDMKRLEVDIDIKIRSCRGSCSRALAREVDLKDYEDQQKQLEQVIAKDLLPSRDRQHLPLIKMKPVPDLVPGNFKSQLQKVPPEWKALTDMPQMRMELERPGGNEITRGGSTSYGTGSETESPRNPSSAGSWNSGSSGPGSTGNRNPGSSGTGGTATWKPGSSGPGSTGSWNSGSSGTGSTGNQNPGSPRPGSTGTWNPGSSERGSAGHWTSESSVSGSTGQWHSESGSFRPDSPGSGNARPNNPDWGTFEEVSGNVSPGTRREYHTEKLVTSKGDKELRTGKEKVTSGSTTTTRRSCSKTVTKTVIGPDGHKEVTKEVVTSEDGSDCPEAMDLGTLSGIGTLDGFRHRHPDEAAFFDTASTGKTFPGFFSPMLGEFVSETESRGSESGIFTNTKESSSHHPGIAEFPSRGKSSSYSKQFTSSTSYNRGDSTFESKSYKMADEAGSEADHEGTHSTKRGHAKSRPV
T1 sequence (looked up) 2: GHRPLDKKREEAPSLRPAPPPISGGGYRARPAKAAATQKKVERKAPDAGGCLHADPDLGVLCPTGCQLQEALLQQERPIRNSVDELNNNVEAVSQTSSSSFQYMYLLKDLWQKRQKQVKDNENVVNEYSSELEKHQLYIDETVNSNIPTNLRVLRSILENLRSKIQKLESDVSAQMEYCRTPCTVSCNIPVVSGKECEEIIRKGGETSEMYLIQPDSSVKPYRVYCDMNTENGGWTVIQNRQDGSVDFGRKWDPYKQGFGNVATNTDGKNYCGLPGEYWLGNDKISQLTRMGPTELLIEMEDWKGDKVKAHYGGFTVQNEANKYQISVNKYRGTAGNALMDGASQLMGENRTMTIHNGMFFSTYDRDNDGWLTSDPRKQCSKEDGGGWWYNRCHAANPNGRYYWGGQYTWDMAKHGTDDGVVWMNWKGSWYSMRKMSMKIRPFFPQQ
T1 sequence (looked up) 3: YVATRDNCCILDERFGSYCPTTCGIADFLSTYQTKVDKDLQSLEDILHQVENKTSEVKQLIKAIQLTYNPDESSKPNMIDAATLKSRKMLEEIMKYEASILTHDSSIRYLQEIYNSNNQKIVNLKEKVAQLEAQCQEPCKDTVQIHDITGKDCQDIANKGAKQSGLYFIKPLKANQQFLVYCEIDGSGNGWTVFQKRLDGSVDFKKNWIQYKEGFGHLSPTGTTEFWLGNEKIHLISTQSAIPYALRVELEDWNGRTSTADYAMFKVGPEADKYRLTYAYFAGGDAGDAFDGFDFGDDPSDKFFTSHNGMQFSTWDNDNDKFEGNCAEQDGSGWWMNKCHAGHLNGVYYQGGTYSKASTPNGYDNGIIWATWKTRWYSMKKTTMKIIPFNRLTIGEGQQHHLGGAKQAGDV
The experiment in a line: dried fibrin plate, bound vs free peptide. The method, then: (§1) A fibrinogen solution was prepared at 10 mg/ml (or at twice the concentration of fibrin desired) in TBS buffer (50 mM Tris, 150 mM NaCl, pH 7.4). The fibrinogen solution typically contained ˜17 mM citrate. Subsequently, a solution was prepared containing 2 U/ml thrombin, 20 mM CaCl₂, and 5 mM ε-aminocaproic acid in TBS. The fibrinogen solution and thrombin solution were mixed 1:1 in the wells of a 96-well plate, aliquoting 50 μL of each solution in each well (total volume=100 μL). The plates were evaporated to dryness overnight at 37° C. The polypeptide to be tested, dissolved in water, was added to each well at concentrations between 1-200 μM. […] The plate containing the peptide and (rehydrated) dried fibrin was covered and incubated at 37° C. on a shaker table for 2 hours.
(§2) The supernatant in each well was removed by pipette and the concentration of the polypeptide was measured by mass spectrometry. The ion current detected at the mass of the peptide was monitored after injection of a sample into the mass spectrometer. The area-under-the-peak was quantitated and compared to standards of known concentration. The concentration of peptide in the supernatant is equal to the concentration of free peptide. The concentration of bound peptide was determined by subtracting the concentration of free peptide from the total (starting) concentration. A plot of [Bound Peptide] vs. [Free Peptide] was used to determine the Kd and the concentration of bound peptide at saturation. The curve was fit to the equation: [Bound]=N×[Free]/(Kd+[Free]) where [Bound] is the concentration of bound polypeptide, [Free] is the concentration of free polypeptide, Kd is the dissociation constant (equal to the reciprocal of Kₐ) and N is the concentration of binding sites. The number of binding sites per fibrin molecule was equal to the lo concentration of binding sites determined by the [Bound Polypeptide] vs. [Free Polypeptide] plot, divided by the concentration of fibrin (15 μM) used in the assay.

Assay [3] addresses T1, dried fibrin. In words: dried fibrin plate, free peptide by mass spectrometry, bound vs free fit. Here is the method: as §1, §2
Assay [4] concerns the target DD(E) soluble fibrin-derived polypeptide (UniProt P02671). In words: Kd against DD(E) target.
The target is the same in assay [5]. In words: synthetic peptide, Kd against DD(E) target.
Assay [6] concerns the target T1, dried fibrin. The experiment in a line: dried fibrin plate, bound vs free peptide. This is another data set of the same source.

Bridge positions count the residues as written; N and C are the ends. Ends that are not written are not given here.

For WFHCPYDLCHIL (peptide, not shown: large carriers), the Kd in assay [1] turned out to be 1.4 µM.

B1: alanine scan peptide LACDYYGTCLD (peptide)
peptide: H-LACDYYGTCLD-NH2
modifications: disulfide 3-9
SMILES: CC(C)C[C@H](NC(=O)[C@@H]1CSSC[C@H](NC(=O)[C@H](C)NC(=O)[C@@H](N)CC(C)C)C(=O)N[C@@H](CC(=O)O)C(=O)N[C@@H](Cc2ccc(O)cc2)C(=O)N[C@@H](Cc2ccc(O)cc2)C(=O)NCC(=O)N[C@@H]([C@@H](C)O)C(=O)N1)C(=O)N[C@@H](CC(=O)O)C(N)=O
Consider B1, for which the Kd with dried fibrin [2] stood at 31 µM.
For the molecule LPCDYYATCLD (C-terminal amide; N-terminus free) [alanine scan peptide LPCDYYATCLD], the Kd in the assay with dried fibrin [2] was 41 µM.

B2: alanine scan peptide LPCDYYGTCAD (peptide)
peptide: H-LPCDYYGTCAD-NH2
modifications: disulfide 3-9
SMILES: CC(C)C[C@H](N)C(=O)N1CCC[C@H]1C(=O)N[C@H]1CSSC[C@@H](C(=O)N[C@@H](C)C(=O)N[C@@H](CC(=O)O)C(N)=O)NC(=O)[C@H]([C@@H](C)O)NC(=O)CNC(=O)[C@H](Cc2ccc(O)cc2)NC(=O)[C@H](Cc2ccc(O)cc2)NC(=O)[C@H](CC(=O)O)NC1=O
B2 came in with a Kd in the assay with dried fibrin [2] of 32 µM. This Kd and that of the molecule before are within 1.5-fold of each other.

B3: alanine scan peptide LPCDAYGTCLD (peptide)
peptide: H-LPCDAYGTCLD-NH2
modifications: disulfide 3-9
SMILES: CC(C)C[C@H](NC(=O)[C@@H]1CSSC[C@H](NC(=O)[C@@H]2CCCN2C(=O)[C@@H](N)CC(C)C)C(=O)N[C@@H](CC(=O)O)C(=O)N[C@@H](C)C(=O)N[C@@H](Cc2ccc(O)cc2)C(=O)NCC(=O)N[C@@H]([C@@H](C)O)C(=O)N1)C(=O)N[C@@H](CC(=O)O)C(N)=O
On to B3, for which the Kd in the assay with dried fibrin [2] was found to be 16 µM.

B4: synthetic polypeptide RPCDYYGTCFD (peptide)
peptide: H-RPCDYYGTCFD-NH2
modifications: disulfide 3-9
SMILES: C[C@@H](O)[C@@H]1NC(=O)CNC(=O)[C@H](Cc2ccc(O)cc2)NC(=O)[C@H](Cc2ccc(O)cc2)NC(=O)[C@H](CC(=O)O)NC(=O)[C@@H](NC(=O)[C@@H]2CCCN2C(=O)[C@@H](N)CCCNC(=N)N)CSSC[C@@H](C(=O)N[C@@H](Cc2ccccc2)C(=O)N[C@@H](CC(=O)O)C(N)=O)NC1=O
notes: Solid-phase synthesis; disulfide loop between the cysteines
The molecule B4 returned a Kd in the assay with dried fibrin [3] of 6.8 µM.

B5: synthetic polypeptide LPCSYYGTCLH (peptide)
peptide: H-LPCSYYGTCLH-NH2
modifications: disulfide 3-9
SMILES: CC(C)C[C@H](NC(=O)[C@@H]1CSSC[C@H](NC(=O)[C@@H]2CCCN2C(=O)[C@@H](N)CC(C)C)C(=O)N[C@@H](CO)C(=O)N[C@@H](Cc2ccc(O)cc2)C(=O)N[C@@H](Cc2ccc(O)cc2)C(=O)NCC(=O)N[C@@H]([C@@H](C)O)C(=O)N1)C(=O)N[C@@H](Cc1c[nH]cn1)C(N)=O
notes: as for B4
As to B5, the Kd with dried fibrin [3] is 13 µM.
QWECPYGLCWIQ (peptide, not shown: large carriers) gave an equilibrium dissociation constant (Kd) in assay [1] of 0.74 µM.
Consider WFHCPYDLCHIL (disulfide 4-9 (inferred)), for which the Kd in assay [4] and in assay [5] was 2.63 µM in each case.
Take GQWECPYGLCWIQ (disulfide 5-10; not fully specified (N-terminus); also: Gd(III) chelate of DTPA) [Gd-DTPA-Gly[SEQ ID NO: 22]]: the Kd is 3.1 µM in assay [4] and 3.6 µM in the assay with dried fibrin [6].

B6: synthetic polypeptide RPCNYYGTCLH (peptide)
peptide: H-RPCNYYGTCLH-NH2
modifications: disulfide 3-9
SMILES: CC(C)C[C@H](NC(=O)[C@@H]1CSSC[C@H](NC(=O)[C@@H]2CCCN2C(=O)[C@@H](N)CCCNC(=N)N)C(=O)N[C@@H](CC(N)=O)C(=O)N[C@@H](Cc2ccc(O)cc2)C(=O)N[C@@H](Cc2ccc(O)cc2)C(=O)NCC(=O)N[C@@H]([C@@H](C)O)C(=O)N1)C(=O)N[C@@H](Cc1c[nH]cn1)C(N)=O
notes: as for B4
B6 returned a dissociation constant (Kd) with dried fibrin [3] of 8.5 µM.
As to QWECPYGLCWIQ (disulfide 4-9 (inferred)), the Kd in assay [4] and in assay [5] was 2.96 µM throughout.

Broadly, the Kd is the equilibrium constant for the complex coming apart.

(Values after US20050261472A1, “Binding moieties for fibrin” (Dyax Corp., priority 1999, published 2005).)
